Test results: the supplement of paper PMC6757056
± gives the standard deviation of the averaged measurements.

B1: library; a variant is named by its letters at N, in order (parent)
chain: GCUGUCACCGGUGUAUUACCCUAGUGGUCGACCGGUCUGAUGAGUCUNNNNNNAGACGAAACAGC

How the values were obtained:
hypoxanthine [1] = variants of: B1; assay: normalized RNA/DNA level with ligand (relative to sTRSVctl = 100) (log10 (% of sTRSVctl)); ligand: hypoxanthine (xanthine aptamer); higher = less ribozyme self-cleavage, higher mRNA level; conditions: ligand concentration (+) RNA-Seq: 5 mM, HEK293T, reporter: mCherry (pCS4076), ligand present: yes
Summary of the method: (§1)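 Ribozyme switch library plasmids with mCherry reporters (eGFP in certain ligand experiments) went into HEK293T cells at 4 µg per 6-well well. Where ligand was used, it was applied 1 h before transfection, and total RNA was extracted with EDTA 72 h later for reverse transcription, amplification, barcoding and sequencing. RNA level is the RNA-to-DNA read ratio normalized to a spiked-in non-cleaving sequence or to the leading sequences, then scaled and log-transformed. Scaling was ×100 with log10, the leading set comprised 25 sequences, and the cutoff was ≥100 DNA reads.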

hypoxanthine [2] = variants of: B1; assay: normalized RNA/DNA level without ligand (relative to sTRSVctl = 100) (log10 (% of sTRSVctl)); ligand: hypoxanthine (xanthine aptamer); higher = less ribozyme self-cleavage, higher mRNA level; conditions: HEK293T, reporter: mCherry (pCS4076), ligand present: no
Summary of the method: as §1

Variant	normalized RNA/DNA level with ligand (log10) (hypoxanthine [1])	normalized RNA/DNA level without ligand (log10) (hypoxanthine [2])
UGCCGA	1.94 ± 0.024	1.678 ± 0.014
UGCCGU	1.9 ± 0.027	1.74 ± 0.026
UGCCGC	2.01 ± 0.032	1.927 ± 0.014
AGACUA	1.95 ± 0.056	1.762 ± 0.0092
AGACUG	1.89 ± 0.045	1.58 ± 0.036
AGCGCA	1.94 ± 0.019	1.758 ± 0.0078
AGCGCC	1.93 ± 0.034	1.86 ± 0.04
CGAGGC	1.97 ± 0.024	1.89 ± 0.0058
CGAGGA	1.975 ± 0.0031	1.713 ± 0.011
CGCCAC	1.92 ± 0.043	1.84 ± 0.05
CGCCAU	1.88 ± 0.046	1.87 ± 0.021
CGCCAA	1.94 ± 0.02	1.82 ± 0.064
GGCGUC	1.94 ± 0.073	1.901 ± 0.014
GGCGUU	2.0064 ± 0.00076	1.966 ± 0.011
GGCGUA	1.908 ± 0.015	1.858 ± 0.00033
AGCGAU	1.9 ± 0.037	1.73 ± 0.076
GGCCCU	2.037 ± 0.02	2 ± 0.034
GGCCCA	1.95 ± 0.026	1.97 ± 0.024
GGCCCC	1.95 ± 0.12	1.97 ± 0.021
GGCCCG	1.974 ± 0.011	1.88 ± 0.03
CGAUCA	1.9299 ± 0.00072	1.7 ± 0.048
CGAUCC	2.013 ± 0.0062	1.898 ± 0.0043
CGAUCU	1.95 ± 0.046	1.877 ± 0.0033

Variant	normalized RNA/DNA level with ligand (log10) (hypoxanthine [1])	normalized RNA/DNA level without ligand (log10) (hypoxanthine [2])
CGAUCG	1.94 ± 0.027	1.84 ± 0.038
UGAGCA	1.97 ± 0.04	1.805 ± 0.0096
UGCUCG	1.941 ± 0.016	1.77 ± 0.046
UGCUCC	1.972 ± 0.002	1.94 ± 0.037
UGAUCC	1.91 ± 0.087	1.921 ± 0.012
UGAUCA	1.98 ± 0.031	1.899 ± 0.0037
UGAUCU	2.022 ± 0.0077	1.939 ± 0.013
AGCAAA	1.92 ± 0.047	1.7327 ± 0.00011
CGCGCA	1.97 ± 0.063	1.81 ± 0.036
CGCGCG	1.9548 ± 0.00063	1.78 ± 0.035
CGCGCU	1.92 ± 0.076	1.93 ± 0.062
CGAGUG	1.92 ± 0.0018	1.76 ± 0.04
CGAGUA	1.928 ± 0.013	1.72 ± 0.042
CGAGCC	1.94 ± 0.11	1.852 ± 0.0083
CGAGCG	1.94 ± 0.057	1.8 ± 0.02
CGAGCU	1.968 ± 0.0032	1.86 ± 0.052
UGCCUU	1.939 ± 0.0041	1.9 ± 0.093
GGACGC	1.86 ± 0.044	1.49 ± 0.12
GGACGU	1.887 ± 0.013	1.814 ± 0.0056
GGAUCU	1.95 ± 0.051	1.92 ± 0.023
GGAUCC	1.96 ± 0.049	1.95 ± 0.018
GGAUCA	1.96 ± 0.04	1.84 ± 0.037
AGCUAU	1.96 ± 0.012	1.825 ± 0.0081

Variant	normalized RNA/DNA level with ligand (log10) (hypoxanthine [1])	normalized RNA/DNA level without ligand (log10) (hypoxanthine [2])
AGCUAG	1.83 ± 0.066	1.508 ± 0.0088
AGCUAA	1.912 ± 0.0024	1.845 ± 0.013
AGCCGC	1.9 ± 0.096	1.84 ± 0.0076
AGCCGU	1.92 ± 0.03	1.69 ± 0.024
UGCUAC	1.937 ± 0.0075	1.847 ± 0.014
UGCUAA	1.92 ± 0.066	1.832 ± 0.0053
UGCUAG	1.94 ± 0.025	1.658 ± 0.0069
GGAUUC	1.98 ± 0.041	1.94 ± 0.0086
GGAUUU	1.99 ± 0.024	1.89 ± 0.02
GGAUUA	1.94 ± 0.04	1.83 ± 0.057
UGCGAA	1.86 ± 0.021	1.724 ± 0.013
UGCGAG	1.868 ± 0.0049	1.658 ± 0.009
UGCGAC	1.96 ± 0.0073	1.77 ± 0.028
UGCGAU	1.933 ± 0.011	1.79 ± 0.081
AGAGUG	1.82 ± 0.047	1.331 ± 0.0048
AGAGUU	1.905 ± 0.0059	1.8267 ± 0.0011
AGAGUC	1.937 ± 0.017	1.8831 ± 0.0015
AGAUCA	1.97 ± 0.049	1.81 ± 0.045
AGAUCC	1.936 ± 0.0091	1.874 ± 0.0045
AGAUCU	1.94 ± 0.051	1.829 ± 0.015
AGAUCG	1.89 ± 0.031	1.55 ± 0.048
AGAGAC	1.88 ± 0.028	1.772 ± 0.017
UGCGCC	1.989 ± 0.0081	1.93 ± 0.065

Variant	normalized RNA/DNA level with ligand (log10) (hypoxanthine [1])	normalized RNA/DNA level without ligand (log10) (hypoxanthine [2])
UGCGCU	1.966 ± 0.0057	1.93 ± 0.023
UGCGCA	1.94 ± 0.034	1.82 ± 0.052
AGACGC	1.923 ± 0.0088	1.69 ± 0.044
AGAGCA	1.94 ± 0.065	1.75 ± 0.027
AGAGCC	1.955 ± 0.018	1.823 ± 0.017
AGAGCU	1.93 ± 0.029	1.83 ± 0.046
GGAGGG	1.883 ± 0.018	1.493 ± 0.0022
GGAGGC	1.82 ± 0.08	1.37 ± 0.057
GGCCAG	1.89 ± 0.026	1.67 ± 0.033
GGCCAU	1.957 ± 0.003	1.919 ± 0.018
GGCCAC	1.997 ± 0.011	1.861 ± 0.0085
GGCCAA	1.934 ± 0.015	1.87 ± 0.022
UGACGC	1.96 ± 0.045	1.83 ± 0.038
GGAUGU	1.93 ± 0.033	1.746 ± 0.0056
AGCGUU	1.93 ± 0.028	1.805 ± 0.011
AGCGUA	1.94 ± 0.027	1.77 ± 0.034
CGCUAU	1.91 ± 0.092	1.78 ± 0.028
CGCUAC	1.86 ± 0.041	1.74 ± 0.074
CGCUAA	1.91 ± 0.061	1.71 ± 0.028
CGCGGC	1.99 ± 0.042	1.92 ± 0.034
CGCGGA	2 ± 0.046	1.863 ± 0.0046
CGCGGU	1.96 ± 0.025	1.87 ± 0.026
AGCACU	1.96 ± 0.039	1.8853 ± 0.00075

Variant	normalized RNA/DNA level with ligand (log10) (hypoxanthine [1])	normalized RNA/DNA level without ligand (log10) (hypoxanthine [2])
GGACUA	1.91 ± 0.09	1.84 ± 0.023
GGACUC	1.9331 ± 0.00093	1.92 ± 0.085
GGACUU	1.94 ± 0.04	1.89 ± 0.04
UGCGGG	1.98 ± 0.11	1.754 ± 0.0048
UGCGGU	1.905 ± 0.01	1.742 ± 0.0036
CGACGU	1.956 ± 0.0063	1.86 ± 0.075
CGCAAG	1.847 ± 0.014	1.78 ± 0.1
CGCAAC	1.928 ± 0.01	1.88 ± 0.024
CGCAAU	1.94 ± 0.015	1.77 ± 0.036
UGAUGC	1.95 ± 0.059	1.852 ± 0.014
UGAUGU	1.91 ± 0.02	1.67 ± 0.022
UGAUGG	1.92 ± 0.062	1.51 ± 0.064
UGAGGC	1.94 ± 0.03	1.9 ± 0.079
UGAGGU	1.94 ± 0.035	1.665 ± 0.015
UGAGGG	1.87 ± 0.036	1.514 ± 0.0058
CGCACU	2 ± 0.11	1.89 ± 0.066
CGCACA	1.92 ± 0.024	1.738 ± 0.016
CGCACC	1.93 ± 0.093	1.9 ± 0.028
CGCACG	1.95 ± 0.089	1.87 ± 0.044
AGAGGG	1.837 ± 0.0044	1.44 ± 0.035
AGAGGC	1.987 ± 0.014	1.86 ± 0.068
CGAGAC	1.93 ± 0.036	1.72 ± 0.025
CGAGAU	1.94 ± 0.036	1.71 ± 0.018
